The values that follow come from the Human Domainome abundance scans (Beltran et al. 2025).

± gives the uncertainty stated by the source.

The chains are these.
B1: Nanos homolog 2, residues 63 to 115; numbered along this chain, P60321 (parent)
chain: CNFCKHNGESRHVYSSHQLKTPDGVVVCPILRHYVCPVCGATGDQAHTLKYCP

The variants in this series derive from B1. The series is described as follows: abundance fitness (aPCA) (normalised: wild type 0, dead -1); higher = more abundant; growth selection in yeast, the domain comes from the species named. Particulars: Homo sapiens.
With E9L, the abundance fitness is -0.277 ± 0.079.
As for E9V, the figure is -0.189 ± 0.061.
As for L31G, the figure is -0.443 ± 0.081.
On to L31Q, for which the abundance fitness was -0.349 ± 0.097.
As for L31P, the figure is -0.444 ± 0.15; as for L31M, -0.153 ± 0.11; as for L31Y, -0.66 ± 0.24.
As for L31K, the figure is -0.271 ± 0.11; as for L31I, -0.16 ± 0.17; as for L31H, -0.271 ± 0.15.
As for Q45T, the figure is -0.074 ± 0.11; as for Q45M, 0.119 ± 0.13; as for Q45D, -0.015 ± 0.12.
Regarding Q45N, the abundance fitness came to 0.085 ± 0.2.
As for Q45W, the figure is -0.368 ± 0.18; as for Q45K, 0.024 ± 0.11.
Consider Q45E, for which the abundance fitness was -0.186 ± 0.09.
As for K50W, the figure is -0.226 ± 0.12; as for K50D, -0.484 ± 0.22; as for K50T, -0.117 ± 0.064.
Take K50V: the abundance fitness is -0.22 ± 0.075.
As for Q18H, the figure is 0.081 ± 0.17; as for Q18A, 0.056 ± 0.1.
As for Q18R, the figure is -0.114 ± 0.073; as for Q18V, 0.065 ± 0.056; as for Q18Y, -0.149 ± 0.14.
On to V38F, for which the abundance fitness was determined as 0.084 ± 0.083.
As for V38D, the figure is -0.184 ± 0.17; as for V38A, 0.001 ± 0.1.
As for V38M, the figure is -0.003 ± 0.061; as for V38H, -0.222 ± 0.16.
As for V38S, the figure is 0.074 ± 0.084.
On to K5L, for which the abundance fitness is -0.144 ± 0.046.
As for K5D, the figure is -0.401 ± 0.097; as for K5S, -0.313 ± 0.048.
As for K5M, the figure is -0.165 ± 0.064.
As for K5I, the figure is -0.054 ± 0.11; as for K5H, -0.3 ± 0.12.
On to K5C, for which the abundance fitness is -0.249 ± 0.081.
Take K5Q: the abundance fitness is -0.281 ± 0.11.
As for V25R, the figure is 0.019 ± 0.086; as for V25L, 0.074 ± 0.095.
As for Y34M, the figure is -0.092 ± 0.11; as for Y34N, -0.134 ± 0.091.
As for Y34R, the figure is 0.046 ± 0.068.
In the case of Y34S, the abundance fitness was -0.097 ± 0.08.
As for Y34K, the figure is -0.03 ± 0.14; as for Y34Q, 0.013 ± 0.099.
For T42N, the abundance fitness was -0.23 ± 0.14.
As for T42M, the figure is -0.153 ± 0.13.
Regarding T42H, the abundance fitness was -0.481 ± 0.23.
As for T42C, the abundance fitness is -0.223 ± 0.096.
As for T42F, the figure is -0.395 ± 0.39; as for T42D, -0.24 ± 0.12.
As for T42S, the figure is -0.116 ± 0.067; as for C39I, -0.739 ± 0.39.
As for C39W, the figure is -0.708 ± 0.11; as for C39P, -0.85 ± 0.24.
For C39Y, the abundance fitness is -0.781 ± 0.073.
As for C39F, the figure is -0.497 ± 0.36.
With P37F, the abundance fitness is -0.306 ± 0.12.
With P37I, the abundance fitness is -0.196 ± 0.13.
As for P37V, the figure is -0.072 ± 0.066.
Turning to P37N, the abundance fitness came out at 0.078 ± 0.087.
As for P37E, the figure is 0.149 ± 0.11.
Regarding P37M, the abundance fitness was -0.101 ± 0.12.
For P37T, the abundance fitness is -0.09 ± 0.11.
As for P37S, the figure is 0.156 ± 0.1.
Take P37A: the abundance fitness was -0.231 ± 0.12.
As for Y14G, the figure is -0.109 ± 0.076; as for Y14K, -0.133 ± 0.087; as for Y14I, -0.18 ± 0.15.
Take Y14A: the abundance fitness was -0.165 ± 0.058.
With Y14H, the abundance fitness was -0.226 ± 0.14.
As for Y14E, the figure is -0.089 ± 0.099; as for Y14T, 0.011 ± 0.081.
As for A46P, the figure is -0.403 ± 0.13.
For the variant A46M, the abundance fitness is -0.6 ± 0.15.
As for A46Q, the figure is -0.587 ± 0.12.
As for A46E, the figure is -0.202 ± 0.082; as for A46G, -0.133 ± 0.068; as for A46I, -0.308 ± 0.17.
As for H33K, the figure is -0.013 ± 0.11.
As for H33T, the abundance fitness was found to be 0.068 ± 0.1.
As for H33P, the abundance fitness was -0.319 ± 0.084.
As for H33A, the figure is 0.046 ± 0.075; as for H33I, -0.435 ± 0.19; as for H33E, -0.082 ± 0.12.
Consider K20V, for which the abundance fitness was -0.204 ± 0.06.
As for K20L, the figure is -0.289 ± 0.069; as for K20T, -0.118 ± 0.1.
As for K20G, the figure is -0.523 ± 0.12.
Turning to L19D, the abundance fitness is -0.172 ± 0.18.
As for L19E, the figure is -0.013 ± 0.12; as for L19G, -0.292 ± 0.1.
As for S15V, the figure is -0.157 ± 0.073; as for S15T, -0.595 ± 0.072.
As for S15L, the figure is -0.002 ± 0.071; as for S15F, -0.135 ± 0.1; as for H47L, -0.735 ± 0.11.
As for H47I, the abundance fitness was -0.981 ± 0.17.
As for H47R, the figure is -0.443 ± 0.12; as for H47S, -1.01 ± 0.29.
As for H47M, the figure is -0.647 ± 0.12; as for H47W, -0.781 ± 0.083.
As to H47Q, the abundance fitness was -0.739 ± 0.34.
As for H17V, the figure is -0.769 ± 0.071.
Turning to H17S, the abundance fitness was -0.674 ± 0.1.
Turning to H17A, the abundance fitness is -0.626 ± 0.13.
As for H17N, the figure is -0.711 ± 0.23; as for H17T, -0.442 ± 0.082.
As for H17G, the figure is -0.618 ± 0.073.
As for H17F, the figure is -0.86 ± 0.37; as for H17Q, -0.452 ± 0.083.
On to H17K, for which the abundance fitness was -0.6 ± 0.15.
As for H17I, the figure is -0.719 ± 0.25.
Turning to S10L, the abundance fitness is -0.194 ± 0.059.
As for S10W, the figure is -0.442 ± 0.086; as for S10K, 0.079 ± 0.11.
As for S10A, the figure is -0.172 ± 0.1.
As for S10T, the figure is -0.248 ± 0.12.
Consider S10N, for which the abundance fitness is -0.198 ± 0.14.
As for S10G, the abundance fitness is 0.012 ± 0.065.
As for S10P, the figure is 0.02 ± 0.078; as for S10H, 0.022 ± 0.08; as for A41Y, -0.184 ± 0.089.
As for A41D, the figure is -0.287 ± 0.15; as for A41Q, 0.023 ± 0.14.
With A41S, the abundance fitness was -0.014 ± 0.069.
As for L49G, the figure is -0.05 ± 0.06; as for L49C, -0.368 ± 0.12.
As for L49A, the figure is 0.081 ± 0.087; as for L49Q, 0.347 ± 0.16; as for L49V, 0.104 ± 0.067.
As for L49H, the figure is 0.169 ± 0.18; as for V26R, -0.523 ± 0.087.
In the case of V26A, the abundance fitness is -0.369 ± 0.11.
As for V26Q, the figure is -0.305 ± 0.081; as for V26T, -0.111 ± 0.077; as for C36I, -0.976 ± 0.36.
As for C36V, the figure is -0.93 ± 0.098; as for C36P, -0.74 ± 0.24.
As for C36N, the figure is -0.675 ± 0.11.
C36H: the abundance fitness is -0.623 ± 0.31.
As for C36S, the figure is -0.699 ± 0.094.
Take N2V: the abundance fitness is -0.819 ± 0.084.
As for N2L, the figure is -0.864 ± 0.061.
As for N2K, the figure is -0.255 ± 0.076; as for N2G, -0.484 ± 0.074.
For the variant C52H, the abundance fitness is -0.181 ± 0.078.
As for C52V, the figure is -0.721 ± 0.082; as for C52P, -0.249 ± 0.39.
As for C52D, the figure is -0.505 ± 0.18.
Turning to C52S, the abundance fitness was -0.432 ± 0.12.
In the case of C52Q, the abundance fitness is -0.574 ± 0.19.
As for G8H, the figure is -0.092 ± 0.059.
As for G8D, the figure is -0.223 ± 0.096; as for G8T, -0.359 ± 0.1.
As for G8M, the figure is -0.137 ± 0.069; as for G8V, -0.306 ± 0.085; as for G8C, -0.313 ± 0.097.
For the variant G8R, the abundance fitness was -0.063 ± 0.076.
As for G8S, the figure is -0.08 ± 0.077.
As for G8P, the figure is -0.343 ± 0.1.
As for G8W, the figure is -0.342 ± 0.12.
For G8E, the abundance fitness was -0.119 ± 0.11.
As for G8A, the figure is -0.196 ± 0.075.
